The target of test [1] is T1, DHT05_3arm_A62/B71/C62 chain C.
T1 chain: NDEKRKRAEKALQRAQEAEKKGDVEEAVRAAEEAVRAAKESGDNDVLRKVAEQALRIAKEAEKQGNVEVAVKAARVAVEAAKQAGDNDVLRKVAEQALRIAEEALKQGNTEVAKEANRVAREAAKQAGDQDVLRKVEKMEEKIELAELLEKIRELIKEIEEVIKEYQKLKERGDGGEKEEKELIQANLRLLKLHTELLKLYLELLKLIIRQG
The experiment in a line: SEC and SAXS; chains of one ABC heterotrimer.

Test [2] concerns the target T2, DHT03_3arm_A21/B21/C82 chain C.
T2 construct: also called chain C DHR82 fusion; chain C of C3-DHT03-01-DHR82 and C4-DHT03-01-DHR82
T2 chain: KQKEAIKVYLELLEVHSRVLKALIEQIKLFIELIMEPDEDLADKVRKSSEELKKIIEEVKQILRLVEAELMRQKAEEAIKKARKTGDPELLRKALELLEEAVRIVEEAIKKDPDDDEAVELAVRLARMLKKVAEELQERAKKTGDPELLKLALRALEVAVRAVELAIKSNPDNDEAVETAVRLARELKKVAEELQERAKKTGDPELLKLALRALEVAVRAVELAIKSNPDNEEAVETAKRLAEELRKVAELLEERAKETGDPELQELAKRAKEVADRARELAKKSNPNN
Description: three components purified separately, mixed equimolar, heat annealed, SEC, negative stain EM. An excerpt:
As is evident from the images in FIGS. 4c and 4d, the cyclic structures retain one of the original heterotrimer helical hairpins in each corner; these short, outward facing protein chains provide fusion points for further elaboration of higher order symmetric assemblies. To evaluate the potential for building up larger nanostructures using the rings as hubs, and explore the modularity of the designed building blocks, we replaced the original outward facing chain C helical hairpin with the chain C DHR82 fusion (as it was the largest 4-repeat DHR) from FIG. 3d, row 8. This was done for two designs (C3-DHT03-01 and C4-DHT03-01), with chain C replaced by fusion C82 through expressing and purifying the three components separately, mixing them in equal molar quantities, and reconstituting using heat annealing.
An AKTA PURE FPLC system was used. Heterotrimer bases, arm extensions, coiled coil C2 rings, and all constructs mentioned in SI were passed through a Cytvia Superdex S200 Increase 10/300 GL column, while C3/C4 rings made from DHT03 were passed through a Cytvia Superdex S6 Increase 10/300 GL column. The mobile phase was TBS (25 mM Tris-HCl pH 8.0, 100 mM NaCl or 25 mM Tris-HCl pH 8.0, 150 mM NaCl). Samples ran at a flow rate of 0.75 ml/min and fractions were collected at 0.5 ml.

Test [3] deals with T3, DHT03 chain C (SEQ ID NO: 59).
T3 chain: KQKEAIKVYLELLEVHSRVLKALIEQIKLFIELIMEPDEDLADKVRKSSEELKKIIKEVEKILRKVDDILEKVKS
Description: chains mixed and annealed, SEC, negative stain EM; A4B4C4 ring.

The target in test [4] is T4, DHT01-4arm-01 chain C.
T4 construct: also called DHT01-4arm-02 chain C; C2-DHT01-01 chain B
T4 chain: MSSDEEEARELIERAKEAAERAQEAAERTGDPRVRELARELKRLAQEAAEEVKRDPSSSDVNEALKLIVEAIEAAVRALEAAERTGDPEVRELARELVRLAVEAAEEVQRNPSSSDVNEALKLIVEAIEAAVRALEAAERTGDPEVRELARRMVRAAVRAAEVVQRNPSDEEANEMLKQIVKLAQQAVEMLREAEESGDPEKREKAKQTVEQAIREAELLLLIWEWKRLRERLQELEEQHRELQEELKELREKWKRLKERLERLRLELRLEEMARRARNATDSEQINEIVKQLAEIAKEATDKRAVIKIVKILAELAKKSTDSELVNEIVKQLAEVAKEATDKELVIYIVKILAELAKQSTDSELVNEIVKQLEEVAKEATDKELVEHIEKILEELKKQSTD
The experiment in a line: bicistronic expression, SAXS, negative stain EM; A2B2 ring.

In test [5] the target is T3, DHT03 chain C (SEQ ID NO: 59). Description: chains mixed and annealed, SEC, negative stain EM; A3B3C3 ring.
Test [6] has the same target. The experiment in a line: X-ray crystal structure, 3.35 A. Here is the method:
Purified DHT03_2arm_A21/B21/C (long) protein at a concentration of 41 mg/mL was used to conduct sitting drop, vapor-diffusion crystallization trials using the JCSG Core I-IV screens (NeXtal Biotechnologies). Crystals of DHT03_2arm_A21/B21/C long grew from drops consisting of 100 nL protein plus 100 nL of a reservoir solution consisting of 2M (NH4)2SO4, 0.1M sodium acetate pH4.6 at 18° C., and were cryoprotected by supplementing the reservoir solution with 2.2M sodium malonate pH5. Native diffraction data was collected at APS beamline APS-23-ID-B, indexed to P1 and reduced using XDS⁴⁸. The structure was phased by molecular replacement using Phaser™. The chain A of a set of ˜49 lowest energy predicted models from Rosetta™ were used as search models. Several of these models gave clear solutions. Chain B and Chain C were fitted manually in Coot™ and rigid body refinement by Phenix™. The following model building and refinement were done by Coot™ and Phenix™.

Data on 9 molecules can be found in US20240029824A1 (University of Washington, published 2024).

B1: DHT05_3arm_A62/B71/C62 chain B (designed binder)
chain: SEVEKRLLEIHRQVAESHRILVEVHEALIEALRGNSEEAKEKLKELVKKLEKIIRQEELLLQLLEALVKALQAKKEGDPELVLEAAKDALRVAEQAAKEGDKEMFKQAAELALWLAKQLVEVASKEGDPELVLEAAKVALRVAELAAKNGDKEVFKKAAESALEVAKRLVEVASKEGDPELVEEAAKVAEEVRKLAKKQGDEEVYEKARETAREVKEELKRVREEK
In the case of B1, the binding result in test [1] is recorded as “binds”.

B2: C4-DHT03-01 chain B (designed binder)
chain: MGTTNFHLINGSEEARQLIQKAVEAISKKEGTEVHFEKSDGTLEIRVKNLHPRQEDLIKKFIEALLLALVAKGELEQAEKEGDAEVALRAVEKVVRVAELLLRLAKEAGSEEALKAALEIAEQAARLAARVFTLAVKQNDSDVAKRAVELIKRVAELLKRIAKESGSEEAKERAEKVEKAAEVAEIAARILDQLSNTELAKEALKLASEALKSDIKEALEVVRLALRIVQQLPDTELAREALELAKEAVKSTDSEQLEVVRLALEIVQLAPDTRLARAALKLAKEAVKSTDQEELKKVKAILRVASEVLKLEEEAKKSQEEVERLKQEVEKASKAGLDHEGDSRIFKKIHDVVTKQIKVILRLIAVYAELVAIIG
notes: four copies in the A4B4C4 ring; also called C4-DHT03-01-DHR82 chain B
Take B2: the binding result in test [2] and in test [3] was “binds” each time.

B3: C2-DHT01-02 chain B (designed binder)
chain: DEEEKLRESLEEQKKRVKEIEREHEEIREALKRLQQSVLRQAVRLAKLGDDSEMIQRIVEDLARQAMEATDDREVEKIEKALDELAKNSTDEELKKVIKVAKTLVRVAKLVKEAEELLRQAKEKGSEEDLEKALRTAEEAAREAKKVLEEAEKAQIAEAALLAVELVVRVAELLLRIAKESGSEEALERALRVAEEAARLAKRVLELAEKQGDPEVALRAVELVVRVAELLLRIAKESGSSEALTRAWRVAIEAFQLAVRVLKLAQKQNDSEVARRATELMKRVAELMERIARESGSSAFKAAAEALEAAARTNDKEVVDLARELARLAIEALEEVERNSKSSDVNRALKLILRAIKAAVQLLEHAEKSGDPEVRELARELVRRLVEAAEEVQRNPSDEQKNTQLRRLIAKAEVWLLNEEFKEAEKRFRKLQEETKKALEEVEELNQRFEEALEEVERIKRRQK
notes: two copies in the A2B2 ring
In the case of B3, the binding result in test [4] is “binds”.

B4: C2-DHT01-01 chain A (designed binder)
chain: DEEEKLRESLEEQKKRVKEIEREHEEIREALKRLQQSVLRQAVRLAKLGDDSEMIRRIVKDLMQQAIEATDEREVEKIKKAAEELSKNSTDEDLKKQIKAVQELVKAVETVREAKKQGDPKKVLKAAEIAMEVATWAAERNDEMIFKLAAKMAKEVAERLKEVAKKENDSALELAAEAIKAAVEALEAALRTGDPRVRELAKELVRLAKEAAEEATRDSKDSDKNEALKLIVEAIKAAVRALEAAERTGDPEVRELARELVRLAVEAAEEVLRNPSSSDVNRALKLIVRAIEAAVQLLEHAEKSGDPEVRELARELVRRLVEAAEEVQRNPSDEQKNTQLRRLIAKAEVWLLNEEFKEAEKRFRKLQEETKKALEEVEELNQRFEEALEEVERIKRRQK
notes: two copies in the A2B2 ring; ring designs kept a C-terminal His-tag in frame
As to B4, the binding result in test [4] is “binds”.

B5: C3-DHT03-01 chain B (designed binder)
chain: NTHFIVVHGGEEARQLAETAVREISKKEGTEVRFEKKDGLLSIEVKNLSEELQRLIQELLQLLVRLAALLEAVRAVEEAIKRNPDNDEAVETAVRLARELKKVAELLQELAKKAGVPAILRGALLALEVAVRAVELAIKSNPDNDEAVETAVRLAVVKLALEIVQQLPDTELAREALELAKEAVKSTDSEALKVVYLALRIVQQLPDTELARLALELAKKAVEMTAQEVLEIARAALKAAQAFPNTELAELMLRLAEVAARVMKELERNDEEIKKSDELDDESLLEDIVELLKEIIKLWKILVEVSDVMLKLIS
notes: three copies in the A3B3C3 ring; also called C3-DHT03-01-DHR82 chain B
Consider B5, for which the binding result in test [2] and in test [5] was “binds” in each case.

B6: C4-DHT03-02 chain B (designed binder)
chain: MGTTNFHLINGSEEARQIIEKIVEEVARKAGTEVHFEKSDGTLEIRVKNLHEELERRIKKAIEAALAAQIAKKLAEQIERQLSNTELAKEAKKLATEAEKARDSEAVQVVLLALEIVQQLPDTELAKEALELAEEAVKSTDSEALKVVKLALEIVQQLPDTELAREALELAKEAVKSTDSEALKVVYLALRIVQQLPDTELARLALELAKKAVEMTAQEVLEIARAALKAAQAFPNTELAELMLRLAEVAARVMKELERNDEEIKKSDELDDESLLEDIVELLKEIIKLWKILVEVSDVMLKLIS
notes: four copies in the A4B4C4 ring
Regarding B6, the binding result in test [3] is recorded as “binds”.

B7: DHT03_2arm_A21/B21/C long chain B (designed binder)
chain: SEKEKVEELAQRIREQLPDTELAREAQELADEARKSDDSEALKVVYLALRIVQQLPDTELAREALELAKEAVKSTDSEALKVVELALKIVQQLPDTELAKEALELAKEAVKSTDSEALKVVELALEIVQQLPDTELAKEALKLAKEAVKSTDSEALKVVYLALRIVQQLPDTELAREALELAKEAVKSTDSEQLEVVRLALEIVQLAPDTRLARAALKLAKEAVKSTDQEELKKVKAILRVASEVLKLEEEAKKSQEEVERLKQEVEKASKAGLDHEGDSRIFKKIHDVVTKQIKVILRLIAVYAELVAIIG
Consider B7, for which the binding result in test [6] is on record as “binds”.

B8: C2-DHT01-03 chain A (designed binder)
chain: MGDEEEKLRESLEEQKKRVKEIEREHEEIREALKRLQQSVLRQAVRLAKLGDDSRMIASIIRDLVKQALRATDEREQKKIKKALEELAQNATDEALKLLIEAAKSLLRAAEASERGDEEEFRKAAEKALELAKRLVEIAKKQSLPEFVLAAAEIALAVAELAAKNNDSEVLEKALRSAAEVAQRLLEVAEKENNQELVEEAAKILKRALEIVEKAAKKLKERNDQSSDVNRALTLIRRAQEAADQLLEHARKSGDPEVWELAIRLVARLVEAAAKVAANMSDEQQNTQLRRLIAKAEVWLLNEEFKEAEKRFRKLQEETKKALEEVEELNQRFEEALEEVERIKRRQKGGSGWSHPQFEK
notes: two copies in the A2B2 ring
With B8, the binding result in test [4] was “binds”.

B9: C3-DHT03-02 chain B (designed binder)
chain: TWQWVLINISEEARQLIEKAVRAISKKEGTEVHFEKDDGVLHIRVKNLHEKRAREIHKVAKLILEVAAAERIVRERPGSNLAKKALEIILRAAEELAKADVDAALEAAVRAAEKVVREQPGSNLAKKALEIILRAAEELAKLPDPEALKEAVKAAEKVVREQPNSELAKKAREIIKRAAEELAKSPDKEAIQEAATALAILIELILSNTELAREAKELATEARKATDSEAAKVVFLALFIVVQLPDTELAKEALELAKEAVKSTDSEALKVVELALEIVQQLPDTELAKEALKLAKEAVKSTDSEALKVVYLALRIVQQLPDTELAREALELAKEAVKSTDSEQLEVVRLALEIVQLAPDTRLARAALKLAKEAVKSTDQEELKKVKAILRVASEVLKLEEEAKKSQEEVERLKQEVEKASKAGLDHEGDSRIFKKIHDVVTKQIKVILRLIAVYAELVAIIG
notes: three copies in the A3B3C3 ring
With B9, the binding result in test [5] is “binds”.
